Numbering of substitutions follows the chain as printed.
T1: GCM1 (GCMa) (Homo sapiens, UniProt Q9NP62 Q9NP62:1-436)
T1 sequence: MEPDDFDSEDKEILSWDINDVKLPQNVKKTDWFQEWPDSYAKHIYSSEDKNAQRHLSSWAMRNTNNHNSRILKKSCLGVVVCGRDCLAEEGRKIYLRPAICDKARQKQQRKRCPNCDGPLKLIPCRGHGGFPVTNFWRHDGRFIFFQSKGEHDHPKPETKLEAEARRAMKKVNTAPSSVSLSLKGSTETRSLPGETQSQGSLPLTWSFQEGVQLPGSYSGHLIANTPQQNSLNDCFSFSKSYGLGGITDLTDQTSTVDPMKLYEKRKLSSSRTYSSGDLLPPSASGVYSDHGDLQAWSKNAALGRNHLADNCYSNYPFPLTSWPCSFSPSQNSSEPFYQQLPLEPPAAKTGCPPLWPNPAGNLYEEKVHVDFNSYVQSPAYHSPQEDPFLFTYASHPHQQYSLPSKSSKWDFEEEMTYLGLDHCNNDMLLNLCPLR

B1: HtrA4-GBS probe (dsDNA)
DNA 1: GTGAGCTTTCTTATCAGTCTGCCCTCATTGTCGGTTTT
DNA 2: AAAACCGACAATGAGGGCAGACTGATAAGAAAGCTCAC
B2: HtrA4-GBSmt probe (dsDNA)
DNA 1: B1 DNA 1 with C22A, C23A, C26A, A27C
DNA 2: B1 DNA 2 with T12G, G13T, G16T, G17T

Experiments:
GCM1 (GCMa) [1] = target: T1, GCM1 (GCMa); assay: EMSA; supershifted by anti-GCM1 antibody; 5% non-denaturing gel; conditions: tags: C-terminal FLAG (GCM1-FLAG); label: radiolabel
Description: (§1) BeWo cells stably expressing HA-GCM1 (BeWo31) (36) were treated with or without 50 μM forskolin for 24 hours before being subjected to ChIP assay using normal mouse serum or HA mAb (Sigma, St. Louis, Mo.). The immunopurified genomic fragments were amplified by ligation-mediated PCR and the resulting amplicons were fragmented and labeled with terminal labeling kit (Affymetrix, Santa Clara, Calif.) according to the manufacturer's instructions. The chips of Human promoter 1.0R array (Affymetrix) were hybridized with the labeled amplicons, followed by data analysis using the Partek software package (St. Louis, Mo.). Furthermore, RefSeq mapping data were collected from the UCSC Genome Browser's RefFlat table (The UCSC genome browser database: update 2007). The closest RefSeq 5′ end for each ChIP region was identified, regardless of whether the cluster was upstream or downstream of the 5′ end. The primer sequences for ChIP analysis of the interaction between GCM1 and HtrA4-GBS in BeWo cells are 5′-[…]-3′ (SEQ ID NO:4) and 5′-GTCTCTAGCC CTACCCG-3′ (SEQ ID NO:5). On the other hand, analysis of direct interaction between GCM1 and HtrA4-GBS was performed by electrophoretic mobility shift assay (EMSA) as previously described (22). […] The reaction mixtures were analyzed by electrophoresis on 5% non-denaturing polyacrylamide gels. […]

GCM1 (GCMa) [2] = target: T1, GCM1 (GCMa); assay: EMSA; GBS mutated; conditions: tags: C-terminal FLAG (GCM1-FLAG); label: radiolabel
Description: as §1

Binder	binding result (GCM1 (GCMa) [1])	binding result (GCM1 (GCMa) [2])
B1	binds	–
B2	–	no binding

Reference: US20140113288, “METHODS OF IDENTIFYING RISK OF PREECLAMPSIA AND PREGNANCY-RELATED DISORDERS” (Academia Sinica, published 2014)
